This passage reports self-cleavage results from the RNAGym collection of RNA variant scans (doi:10.7554/elife.90254).

To fix the notation:
B1: LINE1-full (parent)
chain: UACGUAGGUGGUUUUCCCCUGAUAGUGCUAAGGGGGCCUGGAAGUUUGGACUGGGCAGAGCUCAACACAGCGUGGCAAAGUGGCUGUGGCUAGACUGCCUCUCUGGAUUCCUCGUCACUCAGCAGGGCAUCUCUGAGAGAAAUGCC

In this data set the parent is B1. In words: self-cleavage, relative activity (ratio to wild type); higher = more cleavage; in vitro, sequencing; the parent is a self-cleaving ribozyme.
On to A22U U134A, for which the self-cleavage was determined as 1.15.

As for G21C U109C, the self-cleavage came to 1.18.

Regarding U20C U47C, the self-cleavage worked out at 1.57.

On to U23A A78G, for which the self-cleavage was 1.14.

For the variant A22G U46A, the self-cleavage worked out at 0.95.

With G21U U134A, the self-cleavage came to 1.27.

G21A A141G: the self-cleavage came to 1.16.

For the variant A22G G53A, the self-cleavage was 1.09.

Turning to A22G C51A, the self-cleavage came out at 0.4.

For A22G C68U, the self-cleavage was 0.98.

Turning to A22C A124G, the self-cleavage was 1.92.

U20C U23C: the self-cleavage turned out to be 1.2.

For U20C U23A, the self-cleavage amounted to 1.81.

With G21U C131U, the self-cleavage worked out at 1.41.

Regarding A22G U115G, the self-cleavage turned out to be 1.23.

Turning to U20C C76U, the self-cleavage turned out to be 2.18.

With A22G U100G, the self-cleavage was 1.75.

For the variant U20C C131U, the self-cleavage was determined as 1.18.

Turning to G21A C120A, the self-cleavage is 1.11.

Consider U20G A107G, for which the self-cleavage was determined as 0.72.

On to A22G C84U, for which the self-cleavage was found to be 0.24.

As to U20C U85C, the self-cleavage amounted to 0.38.

Take U20C U85A: the self-cleavage was determined as 0.11.

Turning to A22U C68U, the self-cleavage stood at 0.13.

On to U20C A138G, for which the self-cleavage is 1.55.

U20C A138U: the self-cleavage was 1.42.

On to U20C U52G, for which the self-cleavage came out at 1.81.

For U20C U52C, the self-cleavage was determined as 1.76.

For the variant U20C C84G, the self-cleavage stood at 0.09.

Take U20C G32U: the self-cleavage amounted to 0.94.

As to U20G U132C, the self-cleavage amounted to 1.4.

Turning to U20G U46C, the self-cleavage was 2.3.

With A22G A43U, the self-cleavage is 0.88.

Regarding U20C G48U, the self-cleavage stood at 1.27.

A22U A136G: the self-cleavage stood at 1.13.

In the case of A22U A136U, the self-cleavage is 1.04.

Regarding A22G A124U, the self-cleavage was determined as 0.8.

As to A22G A124G, the self-cleavage was found to be 0.96.

Consider A22G A124C, for which the self-cleavage was 1.49.

Turning to U20C G36A, the self-cleavage worked out at 1.23.

Regarding A22U U26C, the self-cleavage came to 1.18.

For the variant U20C U112A, the self-cleavage was 0.61.

On to U20C U112C, for which the self-cleavage was determined as 1.4.

On to G21A A65C, for which the self-cleavage was determined as 0.02.

As for U20C U73C, the self-cleavage came out at 1.62.

Consider U20C U73A, for which the self-cleavage worked out at 1.56.

G21U U47C: the self-cleavage amounted to 0.72.

For U20C U62G, the self-cleavage stood at 0.03.

For the variant U20C U62A, the self-cleavage came to 0.11.

In the case of U20G A141G, the self-cleavage was found to be 0.87.

For the variant A22G G34U, the self-cleavage amounted to 1.66.

As to A22G A79U, the self-cleavage was 1.51.

On to U20G U109G, for which the self-cleavage turned out to be 0.43.

In the case of U20G U109C, the self-cleavage worked out at 0.93.

As for U20C U81A, the self-cleavage came out at 1.44.

On to U20C U81C, for which the self-cleavage worked out at 1.13.

Regarding A22G C110U, the self-cleavage is 0.92.

Turning to A22U U130C, the self-cleavage amounted to 1.35.

U23A A24G: the self-cleavage amounted to 0.85.

Regarding U20C U46C, the self-cleavage worked out at 1.5.

Take U20G C61U: the self-cleavage amounted to 0.09.

As for A22U U132C, the self-cleavage came out at 1.6.

As for A22G C95U, the self-cleavage is 0.53.

Consider A22G A69U, for which the self-cleavage came to 0.14.

For the variant A22G A69G, the self-cleavage came to 0.59.

As for G21A G135A, the self-cleavage came out at 1.22.

In the case of A22G A78U, the self-cleavage was determined as 1.85.

As to A22G A78G, the self-cleavage came out at 0.94.

Consider A22G A64U, for which the self-cleavage is 0.41.

With A22G A64G, the self-cleavage was 0.34.

Take U20G U134C: the self-cleavage is 0.64.

With A22U G93A, the self-cleavage came to 0.07.

On to A22G G88A, for which the self-cleavage stood at 0.14.

Regarding G21A A59U, the self-cleavage turned out to be 0.57.

Consider U20G A136G, for which the self-cleavage was 1.03.

As for U20C U104A, the self-cleavage is 1.17.

For the variant U20G G135A, the self-cleavage came out at 0.98.

With G21A A67C, the self-cleavage was 0.02.

With A22U A78G, the self-cleavage stood at 1.54.

With A22G U96C, the self-cleavage was found to be 0.2.

Consider U23A, for which the self-cleavage came to 1.3.

For A22G A30G, the self-cleavage was 0.86.

Take A22G A30U: the self-cleavage came to 0.58.

U20C U132A: the self-cleavage stood at 1.63.

As to U20C U132C, the self-cleavage amounted to 1.23.

Take U20C G41A: the self-cleavage stood at 1.27.

Regarding G21A U119C, the self-cleavage amounted to 1.25.

On to U20C G83A, for which the self-cleavage turned out to be 1.

A22G A107U: the self-cleavage turned out to be 0.

Consider A22G G32A, for which the self-cleavage worked out at 0.57.

Regarding A22G G32U, the self-cleavage was determined as 0.6.

In the case of A22G U130A, the self-cleavage turned out to be 1.52.

For the variant A22G U130C, the self-cleavage worked out at 1.3.

As for G21U C56G, the self-cleavage stood at 0.02.

With U20C A136U, the self-cleavage worked out at 1.51.

A22G U52A: the self-cleavage came out at 1.21.

As for A22G U85G, the self-cleavage turned out to be 0.45.

As for A22G U85C, the self-cleavage came out at 0.27.

Take U20C G54A: the self-cleavage is 0.65.

A22G U119C: the self-cleavage came out at 1.43.

As to A22G U119A, the self-cleavage stood at 2.19.

Regarding U20C A142C, the self-cleavage came to 1.88.

For U20C A142U, the self-cleavage is 2.2.

As to U20C A142G, the self-cleavage was 1.36.

For the variant A22C U39C, the self-cleavage came to 2.06.

A22U G144A: the self-cleavage was found to be 1.08.

With A22G C38U, the self-cleavage is 1.95.

Take U23A C98G: the self-cleavage was 0.14.

With G21U A92G, the self-cleavage was found to be 0.1.

With U23A A117C, the self-cleavage is 1.6.

With G21A U102C, the self-cleavage turned out to be 1.79.

In the case of A22G C113U, the self-cleavage was 0.92.

For A22G C113G, the self-cleavage came out at 0.82.

On to U20G U73C, for which the self-cleavage amounted to 1.39.

For the variant U20G U73G, the self-cleavage came out at 0.49.

As to G21U A79G, the self-cleavage is 1.32.

For the variant A22U A64G, the self-cleavage turned out to be 0.3.

For the variant U23A A59G, the self-cleavage came to 0.24.

Regarding A22U A142U, the self-cleavage came out at 1.48.

A22U A142G: the self-cleavage amounted to 1.31.

Turning to A22U A43U, the self-cleavage came out at 1.43.

As for U20C G49A, the self-cleavage came to 1.54.

Take A22U U73A: the self-cleavage is 1.52.

Regarding A22G C145U, the self-cleavage is 0.97.

With G21U A42G, the self-cleavage is 0.8.

Regarding G21U A42U, the self-cleavage was determined as 1.03.

On to A22U C99U, for which the self-cleavage is 0.51.

As to G21A C118U, the self-cleavage came out at 1.07.

As to A22C U81C, the self-cleavage is 1.04.

As for A22G A129C, the self-cleavage was 0.27.

Turning to A22G A92G, the self-cleavage came out at 0.2.

For A22G A92U, the self-cleavage stood at 0.79.

As for A22U U102C, the self-cleavage came to 1.06.

Consider A22G C76G, for which the self-cleavage was found to be 2.86.

On to A22G U29A, for which the self-cleavage turned out to be 1.24.

On to U23A C118U, for which the self-cleavage was determined as 1.22.

Turning to A22G A117G, the self-cleavage amounted to 0.97.

Take A22G A117U: the self-cleavage was 1.29.

For U20C G33C, the self-cleavage worked out at 0.74.

On to U20C G33A, for which the self-cleavage was determined as 0.99.

As to U23A A67G, the self-cleavage turned out to be 0.71.

Consider A22U A124G, for which the self-cleavage turned out to be 0.47.

With U20G U47A, the self-cleavage is 0.51.

On to U20G U47C, for which the self-cleavage was found to be 0.

Regarding A22G U47A, the self-cleavage amounted to 1.15.

With G21A U91A, the self-cleavage came to 0.37.

Turning to U20C U115C, the self-cleavage is 1.57.

Take G21C U47A: the self-cleavage was found to be 0.91.

As to A22G G125A, the self-cleavage stood at 1.9.

As to A22U U39A, the self-cleavage came out at 1.17.

For the variant A22G U108C, the self-cleavage amounted to 1.16.

As to U20C C113U, the self-cleavage was determined as 1.62.

Regarding A22G C90U, the self-cleavage stood at 0.04.

On to A22G G70A, for which the self-cleavage came to 0.18.

Consider U20C G126A, for which the self-cleavage worked out at 1.8.

For the variant U20C G40A, the self-cleavage was found to be 1.1.

In the case of A22G C123U, the self-cleavage is 0.99.

In the case of U20C U119C, the self-cleavage was 1.35.

As to G21A C38A, the self-cleavage came out at 1.07.

Turning to A22U G83A, the self-cleavage worked out at 0.82.

Turning to U20G U104A, the self-cleavage was 1.29.

Turning to A22U A121C, the self-cleavage worked out at 1.27.

For A22U A92G, the self-cleavage worked out at 0.05.

In the case of A22U A92U, the self-cleavage amounted to 0.63.

In the case of G21A C145U, the self-cleavage is 0.32.

For the variant U20C A121U, the self-cleavage was found to be 1.44.

As for G21U G35A, the self-cleavage is 1.36.
